For one substance, OD value (450 nm) results are on record in patent US20200384066A1.

This experiment concerns the target angiogenin (UniProt P03950). In words: phage ELISA; angiogenin coated at 4 ug/mL, negative control phage, anti-g8p antibody and HRP secondary. In general terms: In an ELISA, binding on a coated surface is turned into a signal by an enzyme label.

Chain of angiogenin (P03950 25-147 limits assumed): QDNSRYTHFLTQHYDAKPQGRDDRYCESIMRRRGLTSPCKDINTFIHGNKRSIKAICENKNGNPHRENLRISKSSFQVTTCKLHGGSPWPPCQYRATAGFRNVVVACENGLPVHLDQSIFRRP

For wild type phage, the OD value (450 nm) is 0.191 OD.
